According to article PMC8234171:

Columns and labels:
[1] = target: human mitochondrial complex I (NADH-coenzyme Q oxidoreductase) (human (endogenous in T-REx-293 shRNA-C3))
[2] = target: human mitochondrial complex I (NADH-coenzyme Q oxidoreductase) (human (endogenous in T-REx-293 shRNA-C3)); assay: native gel or EMSA; high-resolution clear native gel electrophoresis (HrCNE, 6.5% gel, 4 °C) of DDM-solubilised mitochondria of shRNA-C3 cells treated with 0.03 mg/mL TAT-NDUFS8 for 0-48 h; immunoblot with anti-NDUFS8 at the complex I location; intensity normalised to complex V (ATPase α subunit)

TAT-NDUFS8 fusion protein (from UniProt O00217 35-210)
complex I in-gel activity (NADH/NBT staining after HrCNE) of shRNA-C3 cells treated with 0.03 mg/mL TAT-NDUFS8 for 48 h; untreated shRNA-C3 cells about 83.6% of the wild type (% of the wild-type activity) [1]: 109
intensity of NDUFS8 at the complex I location after 48 h of treatment [2]: 105%
